Here are results for 1 molecule from patent US9176064B2, “Bisubstrate fluorescent probes for protein kinase CK2” (University of Tartu, priority 2012, dated 2015).

Where a SMILES comes first, the peptide text is derived from it. [ ]: non-standard residue; d: D form. The star is where a group is joined. X1 = O=C(CCCCCCCn1cnc2c(Br)c(Br)c(Br)c(Br)c21)*

Holding throughout (experiment): Kinase panel residual activity
What all share (type): biochemical
What all share (details): compound at 1 micromolar

In data set [1] the target is T1, BRSK2 (Homo sapiens, UniProt Q8IWQ3).
T1 sequence (Q8IWQ3 1-736): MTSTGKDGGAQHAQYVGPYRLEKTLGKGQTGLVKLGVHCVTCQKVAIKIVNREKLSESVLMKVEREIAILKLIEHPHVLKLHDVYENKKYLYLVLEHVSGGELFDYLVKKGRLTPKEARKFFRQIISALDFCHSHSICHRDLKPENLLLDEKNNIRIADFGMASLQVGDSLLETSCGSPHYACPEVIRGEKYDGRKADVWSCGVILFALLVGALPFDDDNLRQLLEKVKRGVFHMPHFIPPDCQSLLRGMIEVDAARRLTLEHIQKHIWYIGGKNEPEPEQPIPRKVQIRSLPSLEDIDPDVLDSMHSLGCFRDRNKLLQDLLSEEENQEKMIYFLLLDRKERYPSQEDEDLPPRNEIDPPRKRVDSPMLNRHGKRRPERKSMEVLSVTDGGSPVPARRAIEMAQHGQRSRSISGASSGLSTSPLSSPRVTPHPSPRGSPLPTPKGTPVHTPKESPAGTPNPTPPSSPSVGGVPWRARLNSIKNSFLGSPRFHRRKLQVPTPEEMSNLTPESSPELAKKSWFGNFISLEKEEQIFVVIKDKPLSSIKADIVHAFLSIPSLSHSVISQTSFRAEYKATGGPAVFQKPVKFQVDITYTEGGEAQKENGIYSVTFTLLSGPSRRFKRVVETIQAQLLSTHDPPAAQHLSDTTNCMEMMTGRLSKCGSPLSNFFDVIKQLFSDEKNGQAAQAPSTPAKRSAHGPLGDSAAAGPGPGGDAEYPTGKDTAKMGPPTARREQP

The target in data set [2] is JNK3 (Homo sapiens, UniProt P53779).
Data set [3] deals with MAPKAP-K2 (Homo sapiens, UniProt P49137).
In data set [4] the target is T2, p38d MAPK (Homo sapiens, UniProt O15264).
T2 sequence (O15264 1-365): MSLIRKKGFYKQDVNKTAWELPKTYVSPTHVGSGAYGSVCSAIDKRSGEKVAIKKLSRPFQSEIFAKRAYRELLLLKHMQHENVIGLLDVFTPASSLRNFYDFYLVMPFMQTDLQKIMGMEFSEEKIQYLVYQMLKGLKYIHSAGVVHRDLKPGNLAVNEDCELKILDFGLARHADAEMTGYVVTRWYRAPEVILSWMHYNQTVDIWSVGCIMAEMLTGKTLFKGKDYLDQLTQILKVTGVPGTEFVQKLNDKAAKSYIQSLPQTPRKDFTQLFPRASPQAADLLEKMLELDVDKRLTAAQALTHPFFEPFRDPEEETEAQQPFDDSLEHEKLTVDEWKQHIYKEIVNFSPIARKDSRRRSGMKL

Data set [5] addresses SYK (Homo sapiens, UniProt P43405).
The target of data set [6] is MSK1 (Homo sapiens, UniProt O75582).
For data set [7], the target named is T3, EPH-B4 (Homo sapiens, UniProt P54760).
T3 sequence (P54760 16-987): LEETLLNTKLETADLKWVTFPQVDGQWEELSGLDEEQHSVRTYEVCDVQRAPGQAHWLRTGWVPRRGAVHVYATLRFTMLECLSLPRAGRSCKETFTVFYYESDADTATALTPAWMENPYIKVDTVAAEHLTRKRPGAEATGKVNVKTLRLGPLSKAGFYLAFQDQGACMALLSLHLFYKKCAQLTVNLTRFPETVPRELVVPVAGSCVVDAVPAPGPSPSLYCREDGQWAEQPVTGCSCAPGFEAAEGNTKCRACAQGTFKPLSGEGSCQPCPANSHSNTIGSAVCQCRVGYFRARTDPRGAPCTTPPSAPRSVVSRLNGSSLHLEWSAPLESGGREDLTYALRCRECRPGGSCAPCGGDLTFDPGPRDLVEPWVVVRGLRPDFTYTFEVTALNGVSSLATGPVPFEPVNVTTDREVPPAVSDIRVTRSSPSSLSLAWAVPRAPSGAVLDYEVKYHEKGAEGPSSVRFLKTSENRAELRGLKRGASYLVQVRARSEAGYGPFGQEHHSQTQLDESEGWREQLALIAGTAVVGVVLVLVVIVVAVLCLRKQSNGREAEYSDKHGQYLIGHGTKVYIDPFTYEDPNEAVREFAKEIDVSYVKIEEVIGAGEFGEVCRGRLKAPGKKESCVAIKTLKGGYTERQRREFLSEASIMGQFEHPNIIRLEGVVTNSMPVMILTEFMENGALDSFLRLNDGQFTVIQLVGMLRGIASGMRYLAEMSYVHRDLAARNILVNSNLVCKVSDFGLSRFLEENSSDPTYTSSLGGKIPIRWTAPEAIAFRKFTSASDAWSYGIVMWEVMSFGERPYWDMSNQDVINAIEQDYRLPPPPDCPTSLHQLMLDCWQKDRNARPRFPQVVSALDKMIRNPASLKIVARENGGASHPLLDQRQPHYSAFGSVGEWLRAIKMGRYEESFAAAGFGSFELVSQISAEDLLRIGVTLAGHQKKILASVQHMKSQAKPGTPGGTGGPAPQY

Data set [8] deals with PKCγ (Homo sapiens, UniProt P05129).
The target of data set [9] is MLK1 (Homo sapiens, UniProt P80192).
Data set [10] deals with OSR1 (Homo sapiens, UniProt O95747).
Sequence of OSR1 (O95747 whole entry): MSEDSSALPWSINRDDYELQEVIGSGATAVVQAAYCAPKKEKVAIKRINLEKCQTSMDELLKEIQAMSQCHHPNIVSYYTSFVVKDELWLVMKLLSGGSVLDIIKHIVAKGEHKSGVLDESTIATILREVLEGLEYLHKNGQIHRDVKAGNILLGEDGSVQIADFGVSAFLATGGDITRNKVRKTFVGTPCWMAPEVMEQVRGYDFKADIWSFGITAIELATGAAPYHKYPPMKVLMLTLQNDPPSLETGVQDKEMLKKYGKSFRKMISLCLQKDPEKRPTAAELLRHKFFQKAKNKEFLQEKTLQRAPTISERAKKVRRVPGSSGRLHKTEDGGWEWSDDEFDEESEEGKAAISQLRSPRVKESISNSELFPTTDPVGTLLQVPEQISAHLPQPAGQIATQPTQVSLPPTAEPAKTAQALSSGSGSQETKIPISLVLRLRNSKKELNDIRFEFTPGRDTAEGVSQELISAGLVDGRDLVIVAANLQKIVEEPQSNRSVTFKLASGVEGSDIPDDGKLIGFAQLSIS

Sequence of MAPKAP-K2 (P49137 whole entry, species assumed): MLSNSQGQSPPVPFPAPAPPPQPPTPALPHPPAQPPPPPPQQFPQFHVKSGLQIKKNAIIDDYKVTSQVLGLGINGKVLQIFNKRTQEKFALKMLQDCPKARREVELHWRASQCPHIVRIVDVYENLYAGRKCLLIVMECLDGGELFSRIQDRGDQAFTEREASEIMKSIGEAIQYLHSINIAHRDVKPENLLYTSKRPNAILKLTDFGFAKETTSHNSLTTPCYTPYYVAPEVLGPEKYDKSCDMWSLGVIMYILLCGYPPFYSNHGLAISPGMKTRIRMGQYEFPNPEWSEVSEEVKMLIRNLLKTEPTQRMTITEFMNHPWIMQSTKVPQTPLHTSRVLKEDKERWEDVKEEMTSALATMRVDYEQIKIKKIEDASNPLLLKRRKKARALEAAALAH
Sequence of JNK3 (P53779 whole entry, species assumed): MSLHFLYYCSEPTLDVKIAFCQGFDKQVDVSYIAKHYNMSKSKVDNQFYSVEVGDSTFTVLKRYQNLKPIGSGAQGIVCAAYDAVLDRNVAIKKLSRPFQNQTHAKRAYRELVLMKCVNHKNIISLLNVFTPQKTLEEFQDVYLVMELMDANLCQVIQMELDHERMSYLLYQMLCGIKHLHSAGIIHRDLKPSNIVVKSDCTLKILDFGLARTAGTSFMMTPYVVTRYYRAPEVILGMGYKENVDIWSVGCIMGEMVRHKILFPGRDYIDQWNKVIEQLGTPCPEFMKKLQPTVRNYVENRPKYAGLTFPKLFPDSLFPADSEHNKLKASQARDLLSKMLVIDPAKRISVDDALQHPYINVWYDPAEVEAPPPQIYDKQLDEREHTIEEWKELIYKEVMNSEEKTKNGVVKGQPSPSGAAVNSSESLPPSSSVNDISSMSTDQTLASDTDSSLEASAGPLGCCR
Sequence of MSK1 (O75582 whole entry, species assumed): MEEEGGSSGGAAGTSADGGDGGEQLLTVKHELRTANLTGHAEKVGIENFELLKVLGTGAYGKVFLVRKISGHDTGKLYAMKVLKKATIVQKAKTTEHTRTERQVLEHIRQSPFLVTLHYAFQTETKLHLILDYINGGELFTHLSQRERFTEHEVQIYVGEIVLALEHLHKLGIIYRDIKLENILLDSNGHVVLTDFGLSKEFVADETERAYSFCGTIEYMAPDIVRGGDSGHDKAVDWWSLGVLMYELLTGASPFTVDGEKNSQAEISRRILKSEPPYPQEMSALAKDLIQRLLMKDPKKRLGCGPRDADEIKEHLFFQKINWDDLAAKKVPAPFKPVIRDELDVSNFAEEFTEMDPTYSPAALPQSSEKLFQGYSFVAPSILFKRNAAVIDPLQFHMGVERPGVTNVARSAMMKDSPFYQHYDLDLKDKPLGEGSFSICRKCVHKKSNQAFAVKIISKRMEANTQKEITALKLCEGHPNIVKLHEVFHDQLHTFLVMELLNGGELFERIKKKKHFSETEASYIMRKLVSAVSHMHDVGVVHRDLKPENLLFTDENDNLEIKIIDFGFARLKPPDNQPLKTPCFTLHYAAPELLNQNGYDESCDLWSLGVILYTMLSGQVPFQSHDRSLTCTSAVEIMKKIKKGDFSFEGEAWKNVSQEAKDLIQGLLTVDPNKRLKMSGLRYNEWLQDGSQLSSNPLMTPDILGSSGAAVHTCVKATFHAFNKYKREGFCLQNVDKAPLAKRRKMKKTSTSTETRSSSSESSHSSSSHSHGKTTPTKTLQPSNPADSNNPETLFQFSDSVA
Sequence of MLK1 (P80192 whole entry, species assumed): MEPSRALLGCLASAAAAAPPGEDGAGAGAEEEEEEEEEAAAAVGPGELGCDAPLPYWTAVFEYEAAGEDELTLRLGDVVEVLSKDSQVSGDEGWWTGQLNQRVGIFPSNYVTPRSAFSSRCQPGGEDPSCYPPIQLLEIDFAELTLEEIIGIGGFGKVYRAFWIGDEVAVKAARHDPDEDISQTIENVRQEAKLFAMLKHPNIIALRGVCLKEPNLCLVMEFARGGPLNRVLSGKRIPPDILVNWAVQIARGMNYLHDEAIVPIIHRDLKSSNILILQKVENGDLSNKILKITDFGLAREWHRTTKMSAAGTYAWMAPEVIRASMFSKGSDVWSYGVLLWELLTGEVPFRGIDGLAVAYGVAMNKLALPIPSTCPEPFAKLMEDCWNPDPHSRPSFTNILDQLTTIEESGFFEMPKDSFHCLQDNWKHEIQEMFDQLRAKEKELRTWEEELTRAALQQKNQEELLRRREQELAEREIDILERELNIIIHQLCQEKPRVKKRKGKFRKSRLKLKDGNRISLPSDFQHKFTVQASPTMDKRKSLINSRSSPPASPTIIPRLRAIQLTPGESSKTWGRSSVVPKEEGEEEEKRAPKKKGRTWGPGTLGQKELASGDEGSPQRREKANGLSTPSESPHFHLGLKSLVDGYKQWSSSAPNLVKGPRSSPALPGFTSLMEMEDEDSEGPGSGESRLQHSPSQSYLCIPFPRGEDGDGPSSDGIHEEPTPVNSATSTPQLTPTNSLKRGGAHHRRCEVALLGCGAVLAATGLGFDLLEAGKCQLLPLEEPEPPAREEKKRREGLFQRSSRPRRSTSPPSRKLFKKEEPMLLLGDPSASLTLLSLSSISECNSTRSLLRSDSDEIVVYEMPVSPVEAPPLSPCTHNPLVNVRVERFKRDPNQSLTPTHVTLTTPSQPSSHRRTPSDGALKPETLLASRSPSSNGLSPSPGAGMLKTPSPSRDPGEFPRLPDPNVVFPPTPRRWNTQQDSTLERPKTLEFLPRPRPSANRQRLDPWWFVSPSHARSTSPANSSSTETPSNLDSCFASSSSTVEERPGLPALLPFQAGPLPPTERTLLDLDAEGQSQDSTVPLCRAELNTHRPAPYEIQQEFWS

`NCCCC[C@H](NC(=O)[C@H](CC(=O)O)NC(=O)[C@H](CC(=O)O)NC(=O)[C@H](CC(=O)O)NC(=O)[C@H](CC(=O)O)NC(=O)[C@H](CC(=O)O)NC(=O)[C@@H](CC(=O)O)NC(=O)CCCCCCCn1cnc2c(Br)c(Br)c(Br)c(Br)c21)C(=O)O` [TBBI-OcA-(D-Asp)-(L-Asp)5-(L-Lys)-OH] (X1-[dD]DDDDDK-OH): the remaining activity (usually the signal under treatment as a percentage of the control signal) at 1 µM in data set [1] stood at 75%; in [2] it was 85%; in data set [3], 89%; in data set [4], 93%; in data set [5], 100%; in data set [6], 102%. Further, the remaining activity at 1 µM is 104% in [7], 106% in data set [8], 112% in data set [9] and 130% in [10].
